This data set is described as follows: soluble fraction after stress (log2 fold change); higher = more stays soluble; pooled small domains, quantitative proteomics. The note with it: stress: 75 degC.
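Further: 20 min heating vs room temperature control held 20 min.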

For the sequence “HMPGEATVPSVIGMTKAEAKAKLQASGFELGYSEFVASDKPKGEIVEQDPGAGETAKGGTEVNVKISDGS”, the “soluble fraction (log2)” value turned out to be 0.0718.

Take “HMPGLDTTILSDILSLKKELPSRSAAKILIMLILAKRIEEGSLNLRTINRILNQYGYTRESLL”: the “soluble fraction (log2)” value is 0.144.

Take “HMPGLQSVTPAELKIGMYVILPLAWDEHPFLKNHFLIQSEAQINKIRELGTKGIQIDLSKSHP”: the “soluble fraction (log2)” value was -1.9.

For “HMPGMLVVYVTGAVRQPGRMVTLAAGSRVSDAIDAAGGLADDADAQALNLSARLNDGDLVHVPSALD”, the “soluble fraction (log2)” value was -0.264.

On to “HMPHILEITSSKILDELQDEKKMVYFHFEKQSNQYVYRLIFNSKNELMEFKKSLEKNSSILDVRADM”, for which the “soluble fraction (log2)” value was -1.81.

Regarding “HMPHITDAEWEVMRVVWANHHVTSKEVISILEDKMNWKATTIKTLLGRLVEKGALSTEQDGKKFIYTAR”, the “soluble fraction (log2)” value is -1.6.

Turning to “HMPHTDATDKQIIALILETLKDGQKHSVSEMTFPGIPREKTAQLLHQMIEEETVRIQNGVLFLPH”, the “soluble fraction (log2)” value was determined as 0.00795.

Regarding “HMPIDNTLLSRITSLGVSTTEAEKLISKHGEEALKANLEVVEERLSKPNLPLLDSPAAYLKTALKNG”, the “soluble fraction (log2)” value was 0.415.

“HMPIEQVEVPNLTNMTREEAESTLTSLNLKAQVHEEANEADEGKVFKQGTNTGEMVDEGSTIEIWVS”: the “soluble fraction (log2)” value was -0.549.

Regarding “HMPIHAGERLTLRLAGEGREAGQAIGYLEDGTLVIVERARHLIGQDVTVEVTRTLQTAGGRLVFAHLVE”, the “soluble fraction (log2)” value is -1.1.

With “HMPKDLEKRAAILAAAKHLFPVHGFEGTSMDAIAALANVSKLTVYSHFKDKESLFTEAIREK”, the “soluble fraction (log2)” value was -0.0647.

For “HMPKDMAKRASILTAASKLFVQHGYGGVSMDQIAAEAGVSKLTVYSHYGDKDSLFAAAVQAH”, the “soluble fraction (log2)” value was -0.617.

For “HMPKELAPYDILARYYLTVNNSKQSIALLEQYLDKAGSAPAALKAKLLLAGILYPSGNKERAEKLVEEVIK”, the “soluble fraction (log2)” value was -0.463.

“HMPKETFLNLDEEKRQAIINVLLKNFSEQHISQVKVSAIVSGIGMSRGAFYKYFEDLEDAYRFTISYFSA”: the “soluble fraction (log2)” value was determined as 0.147.

On to “HMPKLTKEEIQFIDNYLKNSGVEYIDTRAEVVDHVASEIESRLSANNTTNFYEEFKVYMVQHKETLLK”, for which the “soluble fraction (log2)” value is -0.21.

Consider “HMPKLVGEVMQTLDALRREKGLSLLLVEQNARAALGVVDRVYVLERGRVVFEGSAKEAMEDQDVMEFYLG”, for which the “soluble fraction (log2)” value was 0.0465.

For the sequence “HMPKRSKDEAELEFLEMLRDNQVDSTWSFGKIISQLGSTDPRYWMVDDDPLWKRQIFEKYLSNR”, the “soluble fraction (log2)” value was -0.228.

With “HMPLDISDDSKAVLKLLKNDSNELNTVKSASGLSNKKWDKTIKELTKNKIVSVSKTEDGLYIHLI”, the “soluble fraction (log2)” value was found to be 0.438.

Consider “HMPLDYQELRNISPQAARQAILQILKANKGNVSQTARMLGITRKTVYKAMAKREAGNLDDGSRAPK”, for which the “soluble fraction (log2)” value was -1.41.

“HMPLLELPDDFYPAWKPKTIYVQGQRIMLDGVAFEAKWWTQGDNPASGQADPGSSPWRTLTQEEIAKLLE”: the “soluble fraction (log2)” value was -1.52.

For “HMPLLKIGAQGHDVRVVQEALQRAGYAIEGVTGIFDEATREAVLAFQRDQQLTESGTVDRATWHALRR”, the “soluble fraction (log2)” value was -0.0683.

Take “HMPLLSPRQLDVLSLAAGGLSDAQIAGRLVLSESTVRVHFHHIIEKLGVTDRAGAIAWYEQSRS”: the “soluble fraction (log2)” value was -2.05.

With “HMPLNAFDVAGYRLGYGGGYFDRTLAALSPRPLAVGVGFEINRLESIRPEAHDQRLDWIVTENGAFRPA”, the “soluble fraction (log2)” value was -1.58.

In the case of “HMPLNAHIVGRGKRDRRGKRGAPYSIVLELGRDENGKRIQKWYSGYPTKAAAEEDKIRMLRELQTGEYVPQ”, the “soluble fraction (log2)” value is -0.889.

Take “HMPLPFSPVMFVGTKSGAQTDLDGNYKIETYYSSDSLKVVVLGYAPLAKKVKQGTTSVVNFELSAAS”: the “soluble fraction (log2)” value is 0.161.

“HMPLPLYVQIKESLRGQIFDGTYGEHERLPSENDLMSSFGVSRITVRQALSDLEKEELIFKVPGKGAFVSR”: the “soluble fraction (log2)” value was -1.5.

For the sequence “HMPLQKNRPKIKPQKVVFLFSVEWMWSPAHNRIDSYFINIKPSRYYLWNSFFDRHSFSDYWDFIGYTEN”, the “soluble fraction (log2)” value came to 0.1.

In the case of “HMPLSDAEKAAAIATQAKERALKLSPEMISYLLRHASRDMRTLSMLVVALDQYTLEQKRPVTLPLLRELLS”, the “soluble fraction (log2)” value was -0.0668.

“HMPMIQHFHRMISAALGISEKQIVQTLGLLNDGATIPFISRYRKEVTGGLDEVQIESIKTHYEKLNEIAK”: the “soluble fraction (log2)” value is -2.33.

On to “HMPMPQDEVSYALGLSIGQNFKASGIKAITSEDFIAGLQDALAEREPQMTTERAREVINQLFMRLQQEESE”, for which the “soluble fraction (log2)” value is 0.323.

“HMPMTDYQLIRSNRRTIALQITRDARVVVRAPLYASEADIRRFVESHRAWIESHLDRQRARTD”: the “soluble fraction (log2)” value is -3.25.

Turning to “HMPMTRILFLPDDRTILQFDSAEPAEDLVSAVNAGRWLPPEPYRSGFGLGLPENRLRASRQGALVVVMLS”, the “soluble fraction (log2)” value was -0.984.

Consider “HMPNDYRKKLEILAKEKGAEYLHTMLTEVDPKSALQIHTNNIKRTIRALEFYHQTGMKISEHNEAEREK”, for which the “soluble fraction (log2)” value is -0.204.

As to “HMPNIHVVFAEEWTDRRLDKVLSEYFDGYSRSFIKKLFDDGLILVNSKAVKPSYKVRAGDMIDISVPDPV”, the “soluble fraction (log2)” value was -1.83.

As to “HMPNPALESARPAFEAFLSRFSDGEAMRGPAWGLWSLLHRKGNAPTASHAAGRDGMGVLAFLRHWQWG”, the “soluble fraction (log2)” value was -0.452.

As for “HMPPDLSEAIQKRIEGKTDEALEILRKLYNEYPESTEIITMLGRTLLDAEEYALAAFRLEQALDLGG”, the “soluble fraction (log2)” value was -0.699.

For “HMPPDVIENIFKNDANKIIDLYNMAPRGQKETIVEMIKNKRLQGINVDANVLVKLGELTGIDFVN”, the “soluble fraction (log2)” value is -0.087.

“HMPPLVLRGVVMGADGARLAILAQGEAGAALGIGETWKEYTLRSVTDQSATLEHRSGTITLTR”: the “soluble fraction (log2)” value was -0.701.

For “HMPPNPELGKKLLKLRKEFKMTQDDVANILGMSRTSFSKYENGIANPPLQVMRKLASIYNVGLEYLI”, the “soluble fraction (log2)” value is -1.84.

As to “HMPQEMIEILATPNGWLRVRQGPGTNYPEITKVNSGEEFPLLEEKDSWFKIRIEEGQEGWISSQYAQKEE”, the “soluble fraction (log2)” value came to 0.00978.

As to “HMPQGFEDLTEREREVLTLIAEGRTNQEIADALVISIKTVNRHRENIMAKLNLHSRVELVRYAIAQGLI”, the “soluble fraction (log2)” value was -2.61.

On to “HMPQNLQDQLFELILSRYPRRADAVEDLANILHLGKDPVYRRLRGDTFLSPLEISTLALHFRISLDALIV”, for which the “soluble fraction (log2)” value was -2.5.

As for “HMPQPEIEIAAVVPYSAGALLSRIHDDGELLAPVEYRGEGVFVHARVPADIEAAMRRGGMLSPAET”, the “soluble fraction (log2)” value came to 0.0386.

Consider “HMPQQVFKREDLQKWGLTGQADSRKRREKLGQLLGIGYGNGKQLIHRLNMFQVDRATFEQAIKQINQEEDH”, for which the “soluble fraction (log2)” value is -0.539.

With “HMPQTNIYPNPAFDKLFVSNLENETNFKIMDLFGRTIINSKTKGEISISELKSGIYIIEINNFRQKFVK”, the “soluble fraction (log2)” value is -2.64.

For “HMPQVALAIDEMKRELASPDIVKTLLATTFKGLSEVNMRQAMLDGMIQGHTIADFFKKDVYAIPFGSGYSL”, the “soluble fraction (log2)” value stood at 0.049.

Take “HMPRPFPELTTREHDILALIARGWSNGRIADHLSLSGKTVSNYVSNILGKLQVTARAEAAERAREAGMGQ”: the “soluble fraction (log2)” value was -0.379.

For “HMPRRSYLDARKKLLGMLNSPDFNSGDQIPAERELSEVLGISRVTVRKIITELIDEGVLERRGNQGTWLVD”, the “soluble fraction (log2)” value is -1.01.

Turning to “HMPRSREVHVEPGMVLEDVTTGFVGAVIRTEKSAGIYVIELEDRRGRRRSFPLGGGFWLDGRPIIALPPLP”, the “soluble fraction (log2)” value was -1.81.

As to “HMPSLAVYPNPVKDILNIATDKPVHSIRIYNVYGSEVLRAADTNRIDVSHLPAGVYMVSADGKVTRIIK”, the “soluble fraction (log2)” value is -0.858.

In the case of “HMPSLGGLLALLKRNRKPDAMEALDRLISKEDRPETAEALENIREKVRNMQMREAEGLLLALMEP”, the “soluble fraction (log2)” value was -0.509.

On to “HMPSLILADEPTGNLDSRNSSEVIALLKNASKRYAQTIIMITHNRSIAQSADRVLQVSDGVLTDMG”, for which the “soluble fraction (log2)” value stood at 0.345.

With “HMPSLNDRPDDVLYLFSYFLQSFSHRQVSLPKILKKALIQHDWWGNIRELHSVALRYYIFGDTLNGAYDSL”, the “soluble fraction (log2)” value is -0.99.

Consider “HMPSLSREREAAILEMIERRPSTAEDVASGLGLAVNEVIKLLDGTALRGSVETFQSGEEIYYTRKR”, for which the “soluble fraction (log2)” value was 0.472.

As for “HMPSNVKIPDVTGKTVAQARSAIEAAGLKVGKEKDEYSDSAKKDSVIRTNPQAGTQRREGSTVDLIVS”, the “soluble fraction (log2)” value was found to be 0.175.

For the sequence “HMPSPFYIMDEVEAALDDTNLGRLITLFEELRDSSQLIVITHQKKTMEIADALYGVTMRGDGITTVVSQRL”, the “soluble fraction (log2)” value came to 0.151.

For “HMPSQEQSDKNAAMAFLPVIVKNALNGKGLKISDDWKAAVNTALAQYPLVNKFFNADSPEVTELVMGL”, the “soluble fraction (log2)” value was -0.0584.

“HMPSQLPLAFARRHGVLLRGFSNGLAQLTVRPEVSTLSLAETRRHLGVPLALEKVTTERFDQLLREAYEA”: the “soluble fraction (log2)” value was -0.9.

Turning to “HMPSYYKELQNYSPENPVVKKRKVHPDVVNAIKYLAEITDGNPMLIKAYAQMILAHVFTTMPLIDKSV”, the “soluble fraction (log2)” value is -0.00519.

With “HMPTEAIVLQQIQIRQSPSGNSKSLQQILPGAKIKITSESSVKGWKQVSLDGGQKGWIPTAAIGL”, the “soluble fraction (log2)” value was -0.499.

Take “HMPTELVYTVPASAEGLRLDHFLVQHVPHMTRALATELTGAGGVRVNGRRAKKGDRLPSGAEVRLER”: the “soluble fraction (log2)” value worked out at 0.0576.

For the sequence “HMPTFAEKLHEVRKARDFTQDQLAKEMNVSRQTISHWENGRAVPDIDTIKHLSQVLDYNFLV”, the “soluble fraction (log2)” value amounted to 0.0869.

Turning to “HMPTITIQRGIILSSTTKGFIDELSHSQIKNAIVERLGEHHVMIHESQLDAVIKYAQKKEAVINIYL”, the “soluble fraction (log2)” value is -0.874.

On to “HMPTMEQTYIGRTMIAEEDMGKNSKIKVSGIYWTAYNKGRVIKKGEEYKITGIEGNKLIVSSK”, for which the “soluble fraction (log2)” value is -0.393.

Consider “HMPTNSDRLIGSDGVVSSKIDNLQGTGKVYISGLTWSARTIDGSEAEEGDIVTVEKIEGATLYVTKR”, for which the “soluble fraction (log2)” value came to 0.174.

In the case of “HMPTNVYSIIGKEGIVLESIDNLNSTGKVKVNGELWSAISDSNIEKGETIKVLSVNGVKLKVEKVN”, the “soluble fraction (log2)” value is -0.00656.

With “HMPTPASGSSGYINATNVNFRTGPATSYKSISKLAKNTAVTILGTSGNWYKVTVGSLGKNGYVFATYVTVS”, the “soluble fraction (log2)” value is -2.23.

With “HMPTPLTPREHEIANLIAQGLSNREIADELVISPATAARHVANILAKLGFSSRTQVASWATRHD”, the “soluble fraction (log2)” value is -0.277.

For “HMPTSLPGIDIDEKNIVSSTGALSFKKVPKKLAIIGGGYIGLEMGSVWSRLGSSVTVIEYLNFITPG”, the “soluble fraction (log2)” value came to 0.365.
